“And” between values parts separate entries of the source, which are not always exact repeats. Identical values can stand only once.
How the values were obtained:
[1] = tested on: cerebral hemorrhage model in wild-type AB strain zebrafish; assay: Simvastatin-induced cerebral hemorrhage model in zebrafish (incidence); format: in vivo; details: for Number of zebrafish with cerebral hemorrhage / Incidence of cerebral hemorrhage: n = 30; for Incidence of cerebral hemorrhage: model control 83%
Method: 1 dpf wild-type AB strain zebrafish was administered with an aqueous simvastatin solution (0.5 μM) for 18 hours to establish a cerebral hemorrhage model in zebrafish. 180 wild-type AB strain zebrafishes at 1 day post fertilization (1 dpf) were randomly selected and put in a six-well plate, 30 per well (experiment group). Simvastatin was used to induce a cerebral hemorrhage model in zebrafish. Aqueous MS-SOD solutions with concentrations of 222, 667 and 2000 μg/mL were administrated respectively, the concentration of positive control drug icariin was 30 μM, and the normal control group and the model control group were set at the same time. The volume of each well was 3 mL. After 18 hours of co-treatment with MS-SOD and simvastatin, 30 zebrafishes from each group were selected and observed under a microscope, photos were taken and saved. The number of zebrafish with cerebral hemorrhage was counted, and the incidence of cerebral hemorrhage in zebrafish of each experiment group was calculated.

[2] = tested on: cerebral hemorrhage model in wild-type AB strain zebrafish; assay: Movement velocity in simvastatin-induced cerebral hemorrhage model in zebrafish; format: in vivo; details: for Movement velocity (mean ± SE): n = 10, model control 80, normal control 198 mm/s
Method: 5 dpf wild-type AB strain zebrafish was administered with an aqueous simvastatin solution (0.5 μM) for 18 hours to establish a cerebral hemorrhage model in zebrafish. 180 wild-type AB strain zebrafishes at 5 days post fertilization (5 dpf) were randomly selected and put in a six-well plate, 30 per well (experiment group). Aqueous MS-SOD solutions with concentrations of 222, 667 and 2000 μg/mL were administrated respectively, the concentration of positive control drug icariin was 30 μM, and the normal control group and the model control group were set at the same time. The volume of each well was 3 mL. After treatment of zebrafishes with samples for 4 hours, except for the normal control group, the other experiment groups were treated with simvastatin for 18 hours to establish the cerebral hemorrhage model. After the treatment, 10 zebrafishes from each group were randomly selected to measure the movement velocity (V) of zebrafish using a behavioral analyzer. The statistical significance of the movement velocity was used to evaluate the behavioral improvement effect of MS-SOD on cerebral hemorrhage. The formula of the behavioral improvement effect of MS-SOD on cerebral hemorrhage was as follows: [formula] Statistical analysis was performed using variance analysis and Dunnett's T-test, and p<0.05 indicated a significant difference.

[3] = Specific activity of MS-SOD; format: biochemical; details: MS-SOD used in the zebrafish experiments

B1: MS-SOD: manganese superoxide dismutase with high stability, gene from Thermus thermophilus HB27 expressed in E. coli; amino acid sequence SEQ ID NO: 4 (protein)
chain: MPYPFKLPDLGYPYEALEPHIDAKTMEIHHQKHHGAYVTNLNAALEKYPYLHGVEVEVLLRHLAALPQDIQTAVRNNGGGHLNHSLFWRLLTPGGAKEPVGELKKAIDEQFGGFQALKEKLTQAAMGRFGSGWAWLVKDPFGKLHVLSTPNQDNPVMEGFTPIVGIDVWEHAYYLKYQNRRADYLQAIWNVLNWDVAEEFFKKA
modifications: Amino acid sequence for MS-SOD
With B1 the “Improvement effect on cerebral hemorrhage” value ([1]; MS-SOD 222 μg/mL) was 28%, the “Number of zebrafish with cerebral hemorrhage” value (“Number of zebrafish” for short) ([1]; MS-SOD 222 μg/mL) was 18 and the “Incidence of cerebral hemorrhage” value ([1]; MS-SOD 222 μg/mL) was 60%. For the same molecule, the “Improvement effect on cerebral hemorrhage” value ([1]; MS-SOD 667 μg/mL) was 20%, the “Number of zebrafish” value ([1]; MS-SOD 667 μg/mL) was 20 and the “Incidence of cerebral hemorrhage” value ([1]; MS-SOD 667 μg/mL) was 67%. For the same molecule, the “Improvement effect on cerebral hemorrhage” value ([1]; MS-SOD 2000 μg/mL) was 32%, the “Number of zebrafish” value ([1]; MS-SOD 2000 μg/mL) was 17 and the “Incidence of cerebral hemorrhage” value ([1]; MS-SOD 2000 μg/mL) was 57%. The Movement improvement effect ([2]; MS-SOD 222 μg/mL) was −2%, the “Movement velocity (mean ± SE)” value ([2]; MS-SOD 222 μg/mL) was 78 mm/s and 78 ± 4 mm/s and the Movement improvement effect ([2]; MS-SOD 667 μg/mL) was 7%. The “Movement velocity (mean ± SE)” value ([2]; MS-SOD 667 μg/mL) was 88 mm/s and 88 ± 3 mm/s, the Movement improvement effect ([2]; MS-SOD 2000 μg/mL) was 53% and the “Movement velocity (mean ± SE)” value ([2]; MS-SOD 2000 μg/mL) was 143 mm/s and 143 ± 24 mm/s. The specific activity [3] was 5 U/μg.

Reference: US20220168400A1, “USE OF A MANGANESE SUPEROXIDE DISMUTASE WITH HIGH STABILITY IN THE PREVENTION OR TREATMENT OF CEREBRAL STROKE” (CARRY HEALTH BIOPHARMACEUTICALS (HANGZHOU) CO., LTD., priority 2019, published 2022)
